# Reference: patent US20140093973A1 (BOARD OF REGENTS OF THE UNIVERSITY OF OKLAHOMA, published 2014)
# Read-outs that look alike come from different tables or passages of the source. Ends that are not written are not given here.
# B1: YLEPAKAKY, FITC-labeled A1-like peptide (peptide)
# peptide: YLEPAKAKY
# modifications: also: FITC-labeled, position not given here
# B2: QYSWFKNGTF, FITC-labeled A24-like peptide (peptide)
# peptide: QYSWFKNGTF
# modifications: not fully specified; also: FITC-labeled, position not given here
# What was measured:
# [1] = biological target: T1, soluble HLA-A*0101 (human); assay: FP screen of 53 sHLA with FITC-peptide
# T1 construct: Member of the panel of 53 single-specificity sHLA
# [2] = biological target: T2, soluble HLA-A*2902 (human); assay: FP screen of 53 sHLA with FITC-peptide
# T2 construct: Member of the panel of 53 single-specificity sHLA
# [3] = biological target: T3, soluble HLA-B*1801 (human); assay: FP screen
# T3 construct: Member of the panel of 53 single-specificity sHLA
# [4] = biological target: T4, soluble HLA-A*3002 (human); assay: FP screen
# T4 construct: Member of the panel of 53 single-specificity sHLA
# [5] = biological target: T5, soluble HLA-B*1501 (human); assay: FP screen
# T5 construct: Member of the panel of 53 single-specificity sHLA
# [6] = biological target: T6, soluble HLA-A*6801 (sHLA-A*6801) (human); assay: FP screen
# T6 construct: Recombinant soluble class I with endogenous peptides, made as m1
# [7] = biological target: T7, soluble HLA-B*1512 (human); assay: FP screen
# T7 construct: Member of the panel of 53 single-specificity sHLA
# [8] = biological target: T8, soluble HLA-A*1102 (sHLA-A*1102) (human, UniProt P04439 25-308; P61769 21-119); assay: FP screen
# T8 construct: Recombinant soluble class I with endogenous peptides, made as m1
# [9] = biological target: T9, soluble HLA-A*0301 (human); assay: FP screen
# T9 construct: Member of the panel of 53 single-specificity sHLA
# [10] = biological target: T10, soluble HLA-B*4402 (human); assay: FP screen
# T10 construct: Member of the panel of 53 single-specificity sHLA
# [11] = biological target: T11, soluble HLA-B*2705 (sHLA-B*2705) (human); assay: FP screen
# T11 construct: Recombinant soluble class I with endogenous peptides, made as m1; negative control
# [12] = biological target: T12, soluble HLA-B*4001 (human); assay: FP screen
# T12 construct: Member of the panel of 53 single-specificity sHLA
# [13] = biological target: T13, soluble HLA-B*1302 (human); assay: FP screen
# T13 construct: Member of the panel of 53 single-specificity sHLA
# [14] = biological target: soluble HLA-A*0201 (sHLA-A*0201) (human); assay: FP screen
# [15] = biological target: T14, soluble HLA-A*2402 (human); assay: FP screen
# T14 construct: Member of the panel of 53 single-specificity sHLA
# [16] = biological target: T15, soluble HLA-B*4501 (human); assay: FP screen
# T15 construct: Member of the panel of 53 single-specificity sHLA
# [17] = biological target: T16, soluble HLA-A*6601 (human); assay: FP screen
# T16 construct: Member of the panel of 53 single-specificity sHLA
# [18] = biological target: T17, soluble HLA-A*2301 (human); assay: FP screen
# T17 construct: Member of the panel of 53 single-specificity sHLA
# [19] = biological target: T18, soluble HLA-B*4002 (human); assay: FP screen
# T18 construct: Member of the panel of 53 single-specificity sHLA
# [20] = biological target: T19, soluble HLA-A*6901 (sHLA-A*6901) (human); assay: FP screen
# T19 construct: Recombinant soluble class I with endogenous peptides, made as m1
# [21] = biological target: T3, soluble HLA-B*1801; assay: FP screen; remark: listed apart in the source
# [22] = biological target: T4, soluble HLA-A*3002; assay: FP screen; remark: listed apart in the source
# [23] = biological target: T20, soluble HLA-A*3402 (human); assay: FP screen
# T20 construct: Member of the panel of 53 single-specificity sHLA
# [24] = biological target: T21, soluble HLA-A*3601 (human); assay: FP screen
# T21 construct: Member of the panel of 53 single-specificity sHLA
# [25] = biological target: T22, soluble HLA-A*4301 (sHLA-A*4301) (human); assay: FP screen
# T22 construct: Recombinant soluble class I with endogenous peptides, made as m1
# [26] = biological target: T6, soluble HLA-A*6801 (sHLA-A*6801); assay: FP screen; remark: listed apart in the source
# [27] = biological target: T7, soluble HLA-B*1512; assay: FP screen; remark: listed apart in the source
# [28] = biological target: T8, soluble HLA-A*1102 (sHLA-A*1102); assay: FP screen; remark: listed apart in the source
# [29] = biological target: T9, soluble HLA-A*0301; assay: FP screen; remark: listed apart in the source
# [30] = biological target: T10, soluble HLA-B*4402; assay: FP screen; remark: listed apart in the source
# [31] = biological target: T11, soluble HLA-B*2705 (sHLA-B*2705); assay: FP screen; remark: listed apart in the source
# [32] = biological target: T1, soluble HLA-A*0101; assay: FP screen
# [33] = biological target: T12, soluble HLA-B*4001; assay: FP screen; remark: listed apart in the source
# [34] = biological target: T13, soluble HLA-B*1302; assay: FP screen; remark: listed apart in the source
# [35] = biological target: soluble HLA-A*0201 (sHLA-A*0201) (human); assay: FP screen; remark: listed apart in the source
# [36] = biological target: T23, soluble HLA-A*2601 (human); assay: FP screen
# T23 construct: Member of the panel of 53 single-specificity sHLA
# [37] = biological target: T18, soluble HLA-B*4002; assay: FP screen; remark: listed apart in the source
# [38] = biological target: T19, soluble HLA-A*6901 (sHLA-A*6901); assay: FP screen; remark: listed apart in the source
# [39] = biological target: T5, soluble HLA-B*1501; assay: FP screen of 53 sHLA with FITC-peptide
# [40] = biological target: T14, soluble HLA-A*2402; assay: FP screen of 53 sHLA with FITC-peptide
# [41] = biological target: T15, soluble HLA-B*4501; assay: FP screen of 53 sHLA with FITC-peptide
# [42] = biological target: T16, soluble HLA-A*6601; assay: FP screen of 53 sHLA with FITC-peptide
# [43] = biological target: T17, soluble HLA-A*2301; assay: FP screen of 53 sHLA with FITC-peptide
# [44] = biological target: T2, soluble HLA-A*2902; assay: FP screen of 53 sHLA with FITC-peptide; remark: listed apart in the source
binder,measurement,setting,value
B1,binding result,[1],binds
same,binding result,[2],binds
same,binding result,[3],no binding (tested: 100 ug/ml sHLA)
same,binding result,[4],no binding (tested: 100 ug/ml sHLA)
same,binding result,[5],no binding (tested: 100 ug/ml sHLA)
same,binding result,[6],no binding (tested: 100 ug/ml sHLA)
same,binding result,[7],no binding (tested: 100 ug/ml sHLA)
same,binding result,[8],no binding (tested: 100 ug/ml sHLA)
same,binding result,[9],no binding (tested: 100 ug/ml sHLA)
same,binding result,[10],no binding (tested: 100 ug/ml sHLA)
same,binding result,[11],no binding (tested: 100 ug/ml sHLA)
same,binding result,[12],no binding (tested: 100 ug/ml sHLA)
same,binding result,[13],no binding (tested: 100 ug/ml sHLA)
same,binding result,[14],no binding (tested: 100 ug/ml sHLA)
same,binding result,[15],no binding (tested: 100 ug/ml sHLA)
same,binding result,[16],no binding (tested: 100 ug/ml sHLA)
same,binding result,[17],no binding (tested: 100 ug/ml sHLA)
same,binding result,[18],no binding (tested: 100 ug/ml sHLA)
same,binding result,[19],no binding (tested: 100 ug/ml sHLA)
same,binding result,[20],no binding (tested: 100 ug/ml sHLA)
B2,binding result,[21],no binding (tested: 100 ug/ml sHLA)
same,binding result,[22],no binding (tested: 100 ug/ml sHLA)
same,binding result,[23],no binding (tested: 100 ug/ml sHLA)
same,binding result,[24],no binding (tested: 100 ug/ml sHLA)
same,binding result,[25],no binding (tested: 100 ug/ml sHLA)
same,binding result,[26],no binding (tested: 100 ug/ml sHLA)
same,binding result,[27],no binding (tested: 100 ug/ml sHLA)
same,binding result,[28],no binding (tested: 100 ug/ml sHLA)
same,binding result,[29],no binding (tested: 100 ug/ml sHLA)
same,binding result,[30],no binding (tested: 100 ug/ml sHLA)
same,binding result,[31],no binding (tested: 100 ug/ml sHLA)
same,binding result,[32],no binding (tested: 100 ug/ml sHLA)
same,binding result,[33],no binding (tested: 100 ug/ml sHLA)
same,binding result,[34],no binding (tested: 100 ug/ml sHLA)
same,binding result,[35],no binding (tested: 100 ug/ml sHLA)
same,binding result,[36],no binding (tested: 100 ug/ml sHLA)
same,binding result,[37],no binding (tested: 100 ug/ml sHLA)
same,binding result,[38],no binding (tested: 100 ug/ml sHLA)
same,binding result,[39],binds
same,binding result,[40],binds
same,binding result,[41],binds
same,binding result,[42],binds
same,binding result,[43],binds
same,binding result,[44],binds
